The source of these data is patent US20030049646A1 (METROHEALTH SYSTEM, published 2003).

T1: KChAP (K+ Channel Associated Protein), full length, in pGAD10 (rat, UniProt O70260 55-628)
T1 construct: Yeast two-hybrid construct; also called full length KChAP
T1 sequence: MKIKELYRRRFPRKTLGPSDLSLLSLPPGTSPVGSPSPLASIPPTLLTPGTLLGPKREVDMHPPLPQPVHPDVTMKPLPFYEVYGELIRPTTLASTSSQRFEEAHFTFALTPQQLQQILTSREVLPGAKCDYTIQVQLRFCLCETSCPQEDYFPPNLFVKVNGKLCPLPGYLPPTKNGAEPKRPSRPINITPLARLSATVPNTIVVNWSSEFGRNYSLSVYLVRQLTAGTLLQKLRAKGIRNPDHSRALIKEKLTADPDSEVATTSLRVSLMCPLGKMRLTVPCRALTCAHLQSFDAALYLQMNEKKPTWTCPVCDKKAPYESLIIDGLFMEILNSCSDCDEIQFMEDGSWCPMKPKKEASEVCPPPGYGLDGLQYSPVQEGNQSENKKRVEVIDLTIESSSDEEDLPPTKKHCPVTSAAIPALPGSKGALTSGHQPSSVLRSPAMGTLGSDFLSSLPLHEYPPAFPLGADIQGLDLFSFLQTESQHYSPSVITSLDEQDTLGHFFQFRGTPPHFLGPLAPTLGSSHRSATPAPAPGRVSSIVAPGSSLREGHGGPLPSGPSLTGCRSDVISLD

B1: KChAP-Y (partial clone of KChAP from W310 to the C-terminus), in pGAD10 (other, not shown: large carriers)
chain: WTCPVCDKKAPYESLIIDGLFMEILNSCSDCDEIQFMEDGSWCPMKPKKEASEVCPPPGYGLDGLQYSPVQEGNQSENKKRVEVIDLTIESSSDEEDLPPTKKHCPVTSAAIPALPGSKGALTSGHQPSSVLRSPAMGTLGSDFLSSLPLHEYPPAFPLGADIQGLDLFSFLQTESQHYSPSVITSLDEQDTLGHFFQFRGTPPHFLGPLAPTLGSSHRSATPAPAPGRVSSIVAPGSSLREGHGGPLPSGPSLTGCRSDVISLD
notes: also called KChAP-Y plasmid
B2: HERG N-terminus (amino acids 1-396), in pGBT9 (other, UniProt P04386 1-147, looked up)
chain: MKLLSSIEQACDICRLKKLKCSKEKPKCAKCLKNNWECRYSPKTKRSPLTRAHLTEVESRLERLEQLFLLIFPREDLDMILKMDSLQDIKALLTGLFVQDNVNKDAVTDRLASVETDMPLTLRQHRISATSSSEESSNKGQRQLTVSMPVRRGHVAPQNTFLDTIIRKFEGQSRKFIIANARVENCAVIYCNDGFCELCGYSRAEVMQRPCTCDFLHGPRTQRRAAAQIAQALLGAEERKVEIAFYRKDGSCFLCLVDVVPVKNEDGAVIMFILNFEVVMEKDMVGSPAHDTNHRGPPTSWLAPGRAKTFRLKLPALLALTARESSVRSGGAGGAGAPGAVVVDVDLTPAAPSSESLALDEVTAMDNHVAGLGPAEERRALVGPGSPPRSAPGQLPSPRAHSLNPDASGSSCSLARTRSRESCASVRRASSADDIEAMRAGVLPPPPRHASTGAMHPLRSGLLNSTSDSDLVRYRTISKIPQITLNFVDLKGDPFLASPTSDREIIAPKIKERTHNVTEKVTQVLSLGADVLPEYKLQAPRIH
notes: also called N-terminus of the delayed rectifier K+ channel, HERG
B3: Kv2.1 N-terminus (amino acids 1-168), in pGBT9 (other, UniProt P04386 1-147, looked up)
chain: MKLLSSIEQACDICRLKKLKCSKEKPKCAKCLKNNWECRYSPKTKRSPLTRAHLTEVESRLERLEQLFLLIFPREDLDMILKMDSLQDIKALLTGLFVQDNVNKDAVTDRLASVETDMPLTLRQHRISATSSSEESSNKGQRQLTVSMPAGMTKHGSRSTSSLPPEPMEIVRSKACSRRVRLNVGGLAHEVLWRTLDRLPRTRLGKLRDCNTHDSLLQVCDDYSLEDNEYFFDRHPGAFTSILNFYRTGRLHMMEEMCALSFSQELDYWGIDEIYLESCCQARYHQKKEQMNEELKREAETLREREGEEFDNTCC
B4: Kvβ1C (carboxyl terminal 329 amino acids of the Kvβ1 subfamily), in pGBT9 (other, UniProt P04386 1-147, looked up)
chain: MKLLSSIEQACDICRLKKLKCSKEKPKCAKCLKNNWECRYSPKTKRSPLTRAHLTEVESRLERLEQLFLLIFPREDLDMILKMDSLQDIKALLTGLFVQDNVNKDAVTDRLASVETDMPLTLRQHRISATSSSEESSNKGQRQLTVSHRNLGKSGLRVSCLGLGTWVTFGGQISDEVAERLMTIAYESGVNLFDTAEVYAAGKAEVILGSIIKKKGWRRSSLVITTKLYWGGKAETERGLSRKHIIEGLKGSLQRLQLEYVDVVFANRPDSNTPMEEIVRAMTHVINQGMAMYWGTSRWSAMEIMEAYSVARQFNMIPPVCEQAEYHLFQREKVEVQLPELYHKIGVGAMTWSPLACGIISGKYGNGVPESSRASLKCYQWLKERIVSEEGRKQQNKLKDLSPIAERLGCTLPQLAVAWCLRNEGVSSVLLGSSTPEQLIENLGAIQVLPKMTSHVVNEIDNILRNKPYSKKDYRS
notes: also called C-terminus of Kvβ1

Common to all, as to assay: yeast two-hybrid (Y190, pGAD10 x pGBT9), β-galactosidase filter assay
In assay [1] the target is B2. The protocol:
(§1) In the indirect procedure, the yeast Matchmaker Two-Hybrid System Clontech and cDNA molecules encoding KChAP and KChAP-Y were used. The binding specificity between full length KChAP or KChAP-Y and the following Kvα, Kvβ and other K+ channel subunit fragments were determined: Kvβ1.2 (amino acids 1-408), Kvβ1.2-N terminus (amino acids 1-79), Kvβ1C (carboxyl terminal 329 amino acids of the Kvβ1 subfamily), Kvβ2 (amino acids 1-367); Kv1.1-N terminus (amino acids 1-168), Kv1.2 N-terminus (amino acids 1-124), Kv1.4 N-terminus (amino acids 1-305), Kv1.4 C-terminus (amino acids 562-654), Kv1.5 N-terminus (amino acids 1-248), Kv2.1 N-terminus (amino acids 1-168), Kv2.2 N-terminus (amino acids 1-185), Kv6.1 N-terminus (amino acids 1-209), Kir2.2 N-terminus (amino acids 1-86), and HERG N-terminus (amino acids 1-396). The ability of human Gα-binding protein (GBP) to bind to these fragments was also determined.
(§2) Protein-protein interactions were tested by co-transformation of the yeast host strain Y190 with a pGAD10 plasmid containing inserts encoding KChAP-Y, KChAP or GBP with a pGBT9 plasmid containing an insert encoding one of the K+ channel protein fragments. pGBT9 is a GAL4 DNA binding domain [BD] vector. Co-transformants were plated on medium lacking trp and leu and grown for 2.5 days at 30° C. Yeast colonies were lifted to paper filters and assayed for β-galactosidase activity. Appearance of blue color within 8 hours was scored as a positive interaction between the proteins encoded by the two plasmids.

Assay [2] concerns the target T1, KChAP (K+ Channel Associated Protein), …. The protocol: as §1, §2
Assay [3] has as its target T2, human Gu binding protein (GBP), in pGAD10 (human, UniProt O75925 55-651, limits assumed).
T2 construct: Comparison protein, about 50% homologous to KChAP
The protocol: as §1, §2

T2 sequence (O75925 55-651 limits assumed): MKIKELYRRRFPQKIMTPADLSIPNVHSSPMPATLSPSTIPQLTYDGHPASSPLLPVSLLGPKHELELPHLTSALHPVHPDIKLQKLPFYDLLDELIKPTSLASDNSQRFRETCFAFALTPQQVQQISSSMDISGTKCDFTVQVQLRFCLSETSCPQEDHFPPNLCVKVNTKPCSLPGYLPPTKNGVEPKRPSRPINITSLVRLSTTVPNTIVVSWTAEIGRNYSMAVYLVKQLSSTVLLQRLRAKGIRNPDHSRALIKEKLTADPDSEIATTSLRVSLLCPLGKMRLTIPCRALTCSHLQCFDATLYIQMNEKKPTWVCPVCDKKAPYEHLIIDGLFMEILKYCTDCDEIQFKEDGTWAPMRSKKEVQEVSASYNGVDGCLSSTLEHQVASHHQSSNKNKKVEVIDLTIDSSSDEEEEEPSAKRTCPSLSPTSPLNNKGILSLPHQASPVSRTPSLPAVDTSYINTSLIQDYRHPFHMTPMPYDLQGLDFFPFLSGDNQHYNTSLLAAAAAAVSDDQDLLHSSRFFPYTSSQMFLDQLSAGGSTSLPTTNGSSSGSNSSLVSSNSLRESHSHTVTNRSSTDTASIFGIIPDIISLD

As to B1, the binding result in assay [1] is recorded as “no binding”.
On to B2, for which the binding result in assay [2] and in assay [3] was “no binding” throughout.
Turning to B3, the binding result in assay [3] was “no binding”.
The same measure, in the same setting: with B4 the entry was “no binding”.
